Experimental data reported in article PMC5240567, “New Insights into Cooperative Binding of Homeodomain Transcription Factors PREP1 and PBX1 to DNA”.

How the values were obtained:
PREP1hd [1] = molecular target: T1, PREP1hd (UniProt P55347); experiment: fluorescence polarization; conditions: FP and EMSA: 20 mM Na/K phosphate pH 7.2, 150 mM NaCl, 5% glycerol, 1 mM TCEP, room temperature (FP 9 nM DNA, 30 min; EMSA gel run at 4 C in 0.5x TBE); NMR: …
T1 sequence: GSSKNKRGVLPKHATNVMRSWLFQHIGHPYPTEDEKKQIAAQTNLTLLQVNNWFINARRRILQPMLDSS

PBX1HD = molecular target: T2, PBX1HD (UniProt P40424 227-317); experiment: fluorescence polarization; FP and EMSA: 20 mM Na/K phosphate pH 7.2, 150 mM NaCl, 5% glycerol, 1 mM TCEP, room temperature (FP 9 nM DNA, 30 min; EMSA gel run at 4 C in 0.5x TBE); NMR: 20; conditions: protein: recombinant, tags: GST cleaved (pGEX-6P)
T2 sequence: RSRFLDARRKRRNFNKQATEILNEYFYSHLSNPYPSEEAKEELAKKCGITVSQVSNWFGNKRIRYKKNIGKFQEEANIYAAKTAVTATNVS

PREP1HD [2] = molecular target: T3, PREP1HD (UniProt P55347 240-344); experiment: as above; conditions: protein: recombinant, tags: GST cleaved (pGEX-6P), label: 5' 6-FAM (FP)
T3 sequence: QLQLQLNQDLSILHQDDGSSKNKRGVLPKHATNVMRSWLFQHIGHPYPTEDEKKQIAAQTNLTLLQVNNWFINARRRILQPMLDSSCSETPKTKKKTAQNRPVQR

HOXB1HD [3] = molecular target: T4, HOXB1HD (UniProt P14653 171-266); experiment: as above; conditions: protein: recombinant, tags: GST cleaved (pGEX-6P), label: 5' 6-FAM (FP)
PREP1hd [4] = molecular target: T5, PREP1hd (UniProt P55347 257-325); experiment: as above; conditions: protein: recombinant, tags: GST cleaved (pGEX-6P), label: 5' 6-FAM (FP)
T5 sequence: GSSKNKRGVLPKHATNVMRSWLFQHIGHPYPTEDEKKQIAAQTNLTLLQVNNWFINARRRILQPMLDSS

PREP1hd-C = molecular target: T6, PREP1hd-C (UniProt P55347 257-344); experiment: as above; conditions: protein: recombinant; tags: GST cleaved (pGEX-6P); label: 5' 6-FAM (FP); unlabeled in EMSA and NMR
T6 sequence: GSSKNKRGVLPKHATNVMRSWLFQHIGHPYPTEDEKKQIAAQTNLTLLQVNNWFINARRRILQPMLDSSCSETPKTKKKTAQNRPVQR

PREP1hd-N = molecular target: T7, PREP1hd-N (UniProt P55347 240-325); experiment: as above; conditions: protein: recombinant; tags: GST cleaved (pGEX-6P); label: 5' 6-FAM (FP); unlabeled in EMSA and NMR
T7 sequence: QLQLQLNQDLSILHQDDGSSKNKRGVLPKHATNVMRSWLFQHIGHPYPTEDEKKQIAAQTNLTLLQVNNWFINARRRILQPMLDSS

HOXB1HD [5] = molecular target: T4, HOXB1HD; experiment: EMSA; FP and EMSA: 20 mM Na/K phosphate pH 7.2, 150 mM NaCl, 5% glycerol, 1 mM TCEP, room temperature (FP 9 nM DNA, 30 min; EMSA gel run at 4 C in 0.5x TBE); NMR: 20; conditions: protein: recombinant; tags: GST cleaved (pGEX-6P); label: 5' 6-FAM (FP); unlabeled in EMSA
[6] = label: 5' 6-FAM (FP), unlabeled in EMSA

T4 sequence (P14653 171-266): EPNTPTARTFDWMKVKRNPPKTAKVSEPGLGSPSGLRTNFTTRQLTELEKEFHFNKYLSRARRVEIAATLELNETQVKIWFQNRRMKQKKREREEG

## AGGATAACCTGGGATT (double strand) [Control]
PREP1hd [1]
  Kd: 836 µM

B1: Control* (dsDNA)
DNA 1: CGTCAGCCCTACGGGA
DNA 2: TCCCGTAGGGCTGACG
PBX1HD; label: 5' 6-FAM
  Kd: 2.1 ± 0.1 µM

B2: PH (dsDNA)
DNA 1: AGAGTGATTGATAAGG
DNA 2: CCTTATCAATCACTCT
PREP1HD [2]; unlabeled in EMSA
  Kd: 23.5 ± 2 µM
PBX1HD; [6]
  Kd: 2.1 ± 0.3 µM
HOXB1HD [3]; unlabeled in EMSA
  Kd: 6.2 ± 0.1 µM
PREP1hd [4]; unlabeled in EMSA
  Kd: 51.4 ± 2.5 µM

B3: PH* (dsDNA)
DNA 1: AGAGTGATTGATCGGC
DNA 2: GCCGATCAATCACTCT
PBX1HD; label: 5' 6-FAM
  Kd: 3.3 ± 0.5 µM

B4: PMH (dsDNA)
DNA 1: AGTGATTGACAGATTC
DNA 2: GAATCTGTCAATCACT
PREP1HD [2]; unlabeled in EMSA and NMR
  Kd: 15.4 ± 1 µM
PREP1hd-C
  Kd: 15.5 ± 0.6 µM
PBX1HD; label: 5' 6-FAM (FP), unlabeled in EMSA and NMR
  Kd: 0.36 ± 0.1 µM
PREP1hd-N
  Kd: 23.7 ± 2.6 µM
HOXB1HD [3]; unlabeled in EMSA and NMR
  Kd: 2.7 ± 0.2 µM
PREP1hd [4]; unlabeled in EMSA and NMR
  Kd: 31.8 ± 1.5 µM

B5: Control (dsDNA)
DNA 1: AGGATAACCTGGGATT
DNA 2: AATCCCAGGTTATCCT
HOXB1HD [5]
  binding result: binds
PREP1HD [2]; unlabeled in EMSA
  Kd: 159 ± 5.2 µM
PBX1HD; [6]
  Kd: 2.5 ± 0.4 µM
